Experimental findings from US20200207873A1 (INSERM INSTITUT NATIONAL DE LA SANT ET DE LA RECHERCHE M …, published 2020) are described below.

The target in the experiment is T1, full-length His-tagged pUL89 (wild-type) (human cytomegalovirus, AD169 genotype, UniProt P16732 1-674).
T1 construct: mature; It was expressed from pCI-neo His-pUL89 in HEK293 cells and purified on Ni resin; also called His-pUL89; 6xHis-pUL89; not shown: 6xHis tag
T1 sequence: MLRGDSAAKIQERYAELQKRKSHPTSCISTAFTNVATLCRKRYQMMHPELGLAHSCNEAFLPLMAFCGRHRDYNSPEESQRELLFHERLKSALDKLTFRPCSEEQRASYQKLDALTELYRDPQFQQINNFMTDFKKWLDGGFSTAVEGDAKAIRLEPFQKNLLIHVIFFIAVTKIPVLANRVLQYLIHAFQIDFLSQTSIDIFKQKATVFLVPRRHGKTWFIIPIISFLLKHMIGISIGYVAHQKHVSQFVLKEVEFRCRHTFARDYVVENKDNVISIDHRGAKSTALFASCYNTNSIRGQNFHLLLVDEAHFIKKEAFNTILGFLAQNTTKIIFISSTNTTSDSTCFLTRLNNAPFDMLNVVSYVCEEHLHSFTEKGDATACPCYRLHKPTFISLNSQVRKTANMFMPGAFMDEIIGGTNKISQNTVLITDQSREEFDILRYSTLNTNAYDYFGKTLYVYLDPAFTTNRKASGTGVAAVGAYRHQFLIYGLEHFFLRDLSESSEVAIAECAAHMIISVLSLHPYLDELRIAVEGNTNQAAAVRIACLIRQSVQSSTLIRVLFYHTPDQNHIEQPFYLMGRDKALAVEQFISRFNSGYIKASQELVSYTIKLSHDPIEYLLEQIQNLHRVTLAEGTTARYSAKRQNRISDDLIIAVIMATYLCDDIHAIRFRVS
The experiment can be described thus: Alpha proximity assay, purified proteins; negative controls are each protein alone.

Some results are limits rather than exact numbers.

B1: full-length amino-terminal 3xHA-tagged pUL56 (wild-type) (other)
chain: MEMNLLQKLCVVCSKCNEYAMELECLKYCDPNVLLAESTPFKRNAAAIVYLYRKIYPEVVAQNRTQSSLLTLYLEMLLKALHEDTALLDRALMAYSRQPDRAAFYRTVLRLDRCDRHHTVELQFTDNVRFSVSLATLNDIERFLCKMNYVYGILAPEAGLEVCAQLLELLRRLCGISPVARQEVYVEGTTCAQCYEELTIIPNQGRSLNKRLQGLLCNHIAVHRPSSQSDVNIQTVEQDLLDLTTRIPHLAGVLSALKSLFSSSSAYHSYIQEAEEALREYNLFTDIPERIYSLSDFTYWSRTSEVIVKRVGITIQQLNVYHQLCRALMNGISRHLYGEDVEDIFVLGEKALDGEERMFVGSVFAAPNRIIDLITSLSIQAFEDNPVFNKLHESNEMYTKIKHILEEIRRPLPDGTGGDGPEGEAIHLRGREAMSGTGTTLMTASNSSNSSTHSQRNNGGGGRARGGGKKAVGGGANGQDGDGSENGLRVRNCDEHEALDLVDARSRIHNVTREVNVRKRAYLQKVSEVGYGKVIRCIKTQERLTSKLIDVNLVGPLCLDFISKLMNGFLYRSQYHQDQDVVDVGDQFTYDEHLYVVNNLIHKSLPVESLPLLGQQIYELCNGPLFTHCTDRYPLSHNVDMAYACDNAGVLPHVKDDLVKCAEGTVYPSEWMVVKYMGFFNFSDCQDLNVLQKEMWMHVRELVLSVALYNETFGKQLSIACLRDELHPDRDVILTYNKEWPLLLRHEGNLYKSKDLYLLLYRHLSRPDESGDVPTAPVAKPSTLTAAAAVSGAFREPDRPWLPSPYPSSSTAGVSRRVRATRKRPRRASSLLDLARDEHGIQDLVPGSLR
notes: also called 3xHA-pUL56; HA-pUL56; not shown: amino-terminal 3xHA tag
With B1, the “fold of Alpha signal over negative controls” value was more than 2 fold.
